Laboratory results published in patent US20040071698A1 (UAB RESEARCH FOUNDATION, published 2004).

Legend:
[1] = target: T1, truncated EGFR, EGFRvIII, on U87MG.deltaEGFR human glioma cells (UniProt P00533 25-1210); experiment: FACS on U87MG.deltaEGFR cells, culture medium, anti-alpha tubulin and FITC anti-rat detection
T1 construct: whole, on cells; also called U87MG.AEGFR; truncated and/or mutated epidermal growth factor receptor
Method: (§1) The cells, U87MG, U87MG.wtEGFR and U87MG.AEGFR were incubated with culture medium, culture medium from pSECTAG or p6.34 for 30 min at 4° C. The cells were washed, then incubated with rat anti-alpha tubulin followed by FITC-labeled anti-rat antibody.
(§2) The EGFR has three major domains, intracellular, transmembrane and extracellular, any of which may serve as the binding site for clone p6.34. To examine whether the scFv binds to the extracellular portion of the receptor, a FACS analysis was used for this determination. For this assay, culture medium collected from U87MG.pSECTAG or U87MG.pSECTAG.6.34.A8 was allowed to interact with the cell surface of 3 different human glioma sublines; U87MG, U87MG.wtEGFR and U87MG.AEGFR (provided by Dr. H-J. Su Huang, UCSD).

[2] = target: T2, wild-type EGFR on U87MG.wtEGFR human glioma cells (UniProt P00533 25-1210, limits assumed); experiment: FACS on U87MG.wtEGFR cells, culture medium, anti-alpha tubulin and FITC anti-rat detection
T2 construct: whole, on cells; Estimated at >3x10^6 EGFR per cell; also called native full length epidermal growth factor receptor
Method: as §1, §2

B1: secretory anti-EGFR scFv clone 6 secreted by stably transfected U87MG.6.34.A8 cells (clone p6.34) (scFv, not shown: small tags and cut ends)
scFv: EVQLVESGGGLVQPGGSLRLSCSASGFTFSSYAMHWVRQAPGKGLEYVSAISSNGGSTYYADSVKGRFTISRDNSKNTLYLQMSSLRAEDTAVYYCVKDVGGSSWYWADYFDYWGQGTLVTVSSGSASAPKLEEGEFSEARVQSVLTQPPSLSVSPGQTASITCSGDKLGDKYASWYQQKPGQSPVLVIYQDRKRPSGIPERFSGSNSGNTATLTISGTQAMDEADYYCQAWDSSTPYVFGTGTKVTVLGQPKANPTVTLFPPSSAAA
notes: The scFv insert was moved from pSEX81 as a Bpu1102I/NotI fragment behind an Ig kappa leader; also called scFv p6.34; clone p6.34 scFv
- binding result [1]: binds
- binding result [2]: binds
